Numbering of substitutions follows the chain as printed. Read-outs that look alike come from different tables or passages of the source.
Columns and labels:
[1] = molecular target: West Nile virus strain USA99b (strain 385-99), whole virus (West Nile virus strain 385-99 (USA99b)); assay: SPR as in Example 9, WNV captured via immobilized CR4283, average of duplicates
[2] = molecular target: West Nile virus strain USA99b (strain 385-99), whole virus (West Nile virus strain 385-99 (USA99b)); assay: phage ELISA on coated whole inactivated WNV
[3] = molecular target: West Nile virus strain USA99b (strain 385-99), whole virus (West Nile virus strain 385-99 (USA99b)); assay: ELISA on irradiated WNV; IgG1 supernatant diluted 1:5
[4] = molecular target: West Nile virus strain USA99b (strain 385-99), whole virus (West Nile virus strain 385-99 (USA99b)); assay: ELISA on irradiated WNV; IgG1 at 10.000 µg/ml
[5] = molecular target: West Nile virus strain USA99b (strain 385-99), whole virus (West Nile virus strain 385-99 (USA99b)); assay: ELISA on irradiated WNV; IgG1 at 0.000 µg/ml (no antibody)
[6] = molecular target: West Nile virus strain USA99b (strain 385-99), whole virus (West Nile virus strain 385-99 (USA99b)); assay: ELISA on irradiated WNV; IgG1 at 0.078 µg/ml
[7] = molecular target: West Nile virus strain USA99b (strain 385-99), whole virus (West Nile virus strain 385-99 (USA99b)); assay: ELISA on irradiated WNV; IgG1 supernatant diluted 1:25
[8] = molecular target: West Nile virus strain USA99b (strain 385-99), whole virus (West Nile virus strain 385-99 (USA99b)); assay: ELISA on irradiated WNV; IgG1 at 20.000 µg/ml
[9] = molecular target: West Nile virus strain USA99b (strain 385-99), whole virus (West Nile virus strain 385-99 (USA99b)); assay: ELISA on irradiated WNV; IgG1 at 5.000 µg/ml
[10] = molecular target: West Nile virus strain USA99b (strain 385-99), whole virus (West Nile virus strain 385-99 (USA99b)); assay: ELISA on irradiated WNV; IgG1 at 0.630 µg/ml
[11] = molecular target: West Nile virus strain USA99b (strain 385-99), whole virus (West Nile virus strain 385-99 (USA99b)); assay: ELISA on irradiated WNV; IgG1 at 0.160 µg/ml
[12] = molecular target: West Nile virus strain USA99b (strain 385-99), whole virus (West Nile virus strain 385-99 (USA99b)); assay: ELISA on irradiated WNV; IgG1 at 0.039 µg/ml
[13] = molecular target: West Nile virus strain USA99b (strain 385-99), whole virus (West Nile virus strain 385-99 (USA99b)); assay: cell-based or functional assay
[14] = molecular target: West Nile virus strain USA99b (strain 385-99), whole virus (West Nile virus strain 385-99 (USA99b)); assay: ELISA on irradiated WNV; IgG1 at 2.500 µg/ml
[15] = molecular target: West Nile virus strain USA99b (strain 385-99), whole virus (West Nile virus strain 385-99 (USA99b)); assay: ELISA on irradiated WNV; IgG1 at 1.250 µg/ml
[16] = molecular target: West Nile virus strain USA99b (strain 385-99), whole virus (West Nile virus strain 385-99 (USA99b)); assay: ELISA on irradiated WNV; IgG1 supernatant diluted 1:125
[17] = molecular target: West Nile virus strain USA99b (strain 385-99), whole virus (West Nile virus strain 385-99 (USA99b)); assay: ELISA on irradiated WNV; IgG1 at 0.310 µg/ml
[18] = molecular target: West Nile virus strain USA99b (strain 385-99), whole virus (West Nile virus strain 385-99 (USA99b))

B1: CR5074 (antibody, V domains shown)
VH: QVTLKESGPTLVKPTQTLTLTCTFSGFSLSTSGVGVGWIRQPPGKALEWLAVIYWNDDKLYRPSLKSRLTITKDTSKNQVVLTMTKMDPVDTATYYCAHRHRYYDISGYYRLFSDAFDIWGQGTMVTVSS
VL: QSVLTQPPSVSGAPGQRVTISCTGSSSNIGTGYDVHWYQQLPGTAPKLLIYADTNRPSGVPDRFSGSKSGTSASLAITGVQAEDEADYYCQSYDTSLTGWVFGGGTKVTVLG
Kd [1]: 3.9 nM

B2: CR5080 (antibody, V domains shown)
VH: B1 VH
VL: B1 VL with T31A, A52G, D53N, T54S, V80L, T95S, T98S, V101A, V108L
Kd [1]: 2.7 nM

B3: CR5085 (antibody, V domains shown)
VH: B1 VH
VL: B1 VL with L4V, T31A, A52G, D53N, T54S, V80L, A86T, T95S, T98N, V108L
Kd [1]: 3.7 nM

B4: CR5088 (antibody, V domains shown)
VH: B1 VH
VL: QSVVTQPPSVSGAPGQRITISCTGSSSNIGAGYDVHWYQQLPGTAPKFLIYGNSNRPSGVPDRFSGSKSGTSASLAITGLQAEDEADYYCQSYDSSLSGWVFGGGTKLTVLG
Kd [1]: 1.7 nM

B5: SC04-374 (scFv)
scFv: QVTLKESGPTLVKPTQTLTLTCTFSGFSLSTSGVGVGWIRQPPGKALEWLAVIYWNDDKLYRPSLKSRLTITKDTSKNQVVLTMTKMDPVDTATYYCAHRHRYYDISGYYRLFSDAFDIWGQGTMVTVSSGTGGSGGTGSGTGGSTQSVVTQPPSVSGAPGQRVTISCTGSSSNIGAGYDVHWYQQLPGTAPKLLIYGNSNRPSGVPDRFSGSKSGTSASLAITGLQAEDEADYYCQSYDSSLSGSVFGGGTKLTVLG
OD 492 nm [2]: 0.975 OD

B6: CR4299 (antibody, V domains shown)
VH: QVQLVESGGGVVQPGRSLRLSCAASGFTFSGYAMHWVRQAPGKGLDWVAVISYDGSEKYSADSVKGRFTISRDNSKNTLYLQMNSLRAEDTAVYYCAKESGGPIWYKYYGVDVWGQGTTVTVSS
VL: SYVLTQPPSLSAAPRQRVTISCSGSSSNIGNYGVNWYQQLPGKAPKLLIYYDDLLPSGVSDRFSGSKSGTSASLAISGLQSEDEGDYYCAAWDDTLSAWVFGGGTKLTVLG
OD 492 nm [3]: 1.48 OD | OD 492 nm [4]: 1.12 OD | OD 492 nm [5]: 0.003 OD | OD 492 nm [6]: 0.446 OD | OD 492 nm [7]: 1.34 OD | OD 492 nm [8]: 1.19 OD | OD 492 nm [9]: 1.07 OD | OD 492 nm [10]: 0.891 OD | OD 492 nm [11]: 0.61 OD | OD 492 nm [12]: 0.227 OD | potency in the 66% neutralizing antibody titer assay [13]: 3 µg/mL | OD 492 nm [14]: 1.03 OD | OD 492 nm [15]: 0.977 OD | OD 492 nm [16]: 0.929 OD | OD 492 nm [17]: 0.756 OD

B7: CR4353 (antibody, V domains shown)
VH: QVQLVESGGGVVQPGRSLRLSCAASGFTFSNYAMHWVRQAPGKGLEWVAVISYDGGNKYYADSVKGRFTMSRDNSKNTLYLQMNSLRAEDTAVYYCARDFWSGYSMVDSYYYYMDVWGQGTTVTVSS
VL: ETTLTQSPGTLSLSPGERATLSCRASQSVSNTFLAWYQQKPGQAPRLLIYGASSRATGIPDRFSGSGSGTDFTLTISRLEPEDFAAYYCQQYGSSLTFGPGTKVDIKR
OD 492 nm [4]: 1.57 OD | OD 492 nm [5]: 0.003 OD | OD 492 nm [6]: 0.734 OD | Kd [18]: 6.5 nM | OD 492 nm [9]: 1.55 OD | OD 492 nm [10]: 1.33 OD | OD 492 nm [11]: 1.07 OD | OD 492 nm [12]: 0.595 OD | OD 492 nm [14]: 1.43 OD | OD 492 nm [15]: 1.42 OD | OD 492 nm [17]: 1.17 OD

B8: CR4289 (antibody, V domains shown)
VH: EVQLVQSGAEVKKPGESLRISCKGSGYSFTSNWITWVRQMPGKGLEWMGRIDPSDSYTNYSPSFQGHVTISADKSISTAYLQWSSLKASDTAMYYCARDVVGVGASDYYYYMDVWGQGTTVTVSS
VL: EIVLTQSPGTLSLSPGETATLSCRTSQSVSSSYLGWYQQKPGQAPRLLIYGASIRATGIPARFSGSGSGTEFTLTIDSLQSEDFAVYYCQQYNNWPPITFGQGTRLEIKR
OD 492 nm [4]: 0.752 OD | OD 492 nm [5]: 0.003 OD | OD 492 nm [6]: 0.209 OD | OD 492 nm [9]: 0.586 OD | OD 492 nm [10]: 0.351 OD | OD 492 nm [11]: 0.25 OD | OD 492 nm [12]: 0.147 OD | potency in the 66% neutralizing antibody titer assay [13]: 10.1 µg/mL | OD 492 nm [14]: 0.492 OD | OD 492 nm [15]: 0.415 OD | OD 492 nm [17]: 0.313 OD

B9: SC04-361 (scFv)
scFv: EVQLVQSGAEVKKPGESLKISCKASGFSFSTYWIGWVRQMPGKGLEWMGIIYPADSDTRYSPSFQGQVTISADKSISTAYLQWSSLKASDTAMYYCARLRGPYYDFWNGYRETHDAFNVWGQGTMVTVSSGTGGSGGTGSGTGGSTDVVMTQSPDSLAVSLGERATINCKSSQNILDNSDNKNFLAWYQQKPGQPPKLLIYWASARESGVPDRFSGSGSGTDFTLTISSLQAEDVALYYCQQYYNTPITFGQGTRLEIKR
OD 492 nm [2]: 0.66 OD

B10: SC04-353 (scFv)
scFv: EVQLVQSGGGVVQPGRSLRLSCAASGFTFSNYAMHWVRQAPGKGLEWVAVISYDGGNKYYADSVKGRFTMSRDNSKNTLYLQMNSLRAEDTAVYYCARDFWSGYSMVDSYYYYMDVWGKGTTVTVSSGTGGSGGTGSGTGGSTETTLTQSPGTLSLSPGERATLSCRASQSVSNTFLAWYQQKPGQAPRLLIYGASSRATGIPDRFSGSGSGTDFTLTISRLEPEDFAAYYCQQYGSSLTFGPGTKVDIKR
OD 492 nm [2]: 1 OD
